Data taken from patent US20240116985A1 (published 2024).
Starred links: 1 amine or outer side, 2 acyl side, 3 side chain; linkers in the order of their positions; H or OH if unused. Positions of bridges follow the written chain, without caps; N, C: chain ends. Non-standard residues stand in square brackets, D forms with d. Primed or numbered codes have the meaning given here. B5(17) = 2,2-bis(4-pentenyl)glycine = 2-amino-2-(pent-4-en-1-yl)hept-6-enoic acid, stitching residue, C=CCCCC(CCCC=C)(N[*:1])C(=O)[*:2]; B5(23) = 2-amino-2-(pent-4-en-1-yl)hept-6-enoic acid (2,2-bis(4-pentenyl)glycine), stitching residue, C=CCCCC(CCCC=C)(N[*:1])C(=O)[*:2]; B5(4) = 2,2-bis(4-pentenyl)glycine = 2-amino-2-(pent-4-en-1-yl)hept-6-enoic acid (stitching residue), C=CCCCC(CCCC=C)(N[*:1])C(=O)[*:2]; Phe(3,4-F2) = N[C@@H](Cc1ccc(F)c(F)c1)C(=O)O; Phe(3-F) = N[C@@H](Cc1cccc(F)c1)C(=O)O; Phe(4-F) = N[C@@H](Cc1ccc(F)cc1)C(=O)O; Bta = N[C@@H](Cc1csc2ccccc12)C(=O)O; αAllylPro = C=CC[C@@]1(C(=O)O)CCCN1; 2Pal = N[C@@H](Cc1ccccn1)C(=O)O; 3Pal = N[C@@H](Cc1cccnc1)C(=O)O; S8 = C=CCCCCCC[C@](C)(N)C(=O)O; hSer = N[C@@H](CCO)C(=O)O

T1: B-cat-Halo (beta-catenin HaloTag NanoBRET construct expressed in HEK293 cells) (UniProt P35222 1-781)
T1 sequence (looked up): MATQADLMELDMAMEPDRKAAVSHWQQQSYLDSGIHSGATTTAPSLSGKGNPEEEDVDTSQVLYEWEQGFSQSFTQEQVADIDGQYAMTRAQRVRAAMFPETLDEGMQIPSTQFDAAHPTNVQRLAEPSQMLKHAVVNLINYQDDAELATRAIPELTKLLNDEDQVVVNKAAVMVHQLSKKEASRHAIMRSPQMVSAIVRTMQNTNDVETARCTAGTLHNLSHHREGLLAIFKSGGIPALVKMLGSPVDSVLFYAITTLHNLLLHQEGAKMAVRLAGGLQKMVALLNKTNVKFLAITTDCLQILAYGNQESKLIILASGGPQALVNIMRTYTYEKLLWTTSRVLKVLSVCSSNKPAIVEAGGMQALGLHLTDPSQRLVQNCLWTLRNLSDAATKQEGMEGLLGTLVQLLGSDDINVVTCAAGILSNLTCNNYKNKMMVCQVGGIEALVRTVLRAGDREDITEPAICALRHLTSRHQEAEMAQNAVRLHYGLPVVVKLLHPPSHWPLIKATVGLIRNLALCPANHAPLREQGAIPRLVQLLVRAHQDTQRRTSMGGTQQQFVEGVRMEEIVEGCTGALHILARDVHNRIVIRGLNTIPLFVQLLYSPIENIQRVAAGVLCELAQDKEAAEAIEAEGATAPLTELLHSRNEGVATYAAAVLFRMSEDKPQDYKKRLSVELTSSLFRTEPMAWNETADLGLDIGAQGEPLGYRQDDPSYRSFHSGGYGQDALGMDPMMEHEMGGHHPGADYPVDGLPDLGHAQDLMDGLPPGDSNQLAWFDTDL

T2: full-length beta-Catenin (Uniprot ID P35222) (Homo sapiens (Human), UniProt P35222 2-781)
T2 construct: full-length; also called bCat; B-Catenin
T2 sequence: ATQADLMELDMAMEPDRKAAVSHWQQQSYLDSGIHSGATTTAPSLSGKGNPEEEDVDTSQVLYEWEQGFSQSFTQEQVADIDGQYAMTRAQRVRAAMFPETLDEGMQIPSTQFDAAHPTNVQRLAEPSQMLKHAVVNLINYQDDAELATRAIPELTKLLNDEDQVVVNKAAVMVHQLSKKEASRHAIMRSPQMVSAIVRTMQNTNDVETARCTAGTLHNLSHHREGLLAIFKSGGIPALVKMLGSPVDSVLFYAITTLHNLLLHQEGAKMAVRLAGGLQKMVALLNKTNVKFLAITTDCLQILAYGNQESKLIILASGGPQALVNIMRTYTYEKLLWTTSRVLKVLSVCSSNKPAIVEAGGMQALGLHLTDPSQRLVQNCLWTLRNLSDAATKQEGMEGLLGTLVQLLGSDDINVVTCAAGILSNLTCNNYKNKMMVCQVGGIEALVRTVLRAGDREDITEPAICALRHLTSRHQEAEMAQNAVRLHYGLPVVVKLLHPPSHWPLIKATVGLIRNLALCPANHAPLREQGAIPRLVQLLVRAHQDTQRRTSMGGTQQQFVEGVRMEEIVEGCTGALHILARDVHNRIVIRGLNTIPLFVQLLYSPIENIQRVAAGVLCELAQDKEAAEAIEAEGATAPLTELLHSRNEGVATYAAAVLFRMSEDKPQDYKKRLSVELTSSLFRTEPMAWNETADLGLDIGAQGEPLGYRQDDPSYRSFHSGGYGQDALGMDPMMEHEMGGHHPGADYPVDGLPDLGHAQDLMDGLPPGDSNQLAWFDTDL

T3: full-length beta-Catenin (Uniprot ID P35222) (Homo sapiens (Human), UniProt P35222 1-781)
T3 construct: The assay protocols call it full-length; also called B-Catenin; bCat
T3 sequence: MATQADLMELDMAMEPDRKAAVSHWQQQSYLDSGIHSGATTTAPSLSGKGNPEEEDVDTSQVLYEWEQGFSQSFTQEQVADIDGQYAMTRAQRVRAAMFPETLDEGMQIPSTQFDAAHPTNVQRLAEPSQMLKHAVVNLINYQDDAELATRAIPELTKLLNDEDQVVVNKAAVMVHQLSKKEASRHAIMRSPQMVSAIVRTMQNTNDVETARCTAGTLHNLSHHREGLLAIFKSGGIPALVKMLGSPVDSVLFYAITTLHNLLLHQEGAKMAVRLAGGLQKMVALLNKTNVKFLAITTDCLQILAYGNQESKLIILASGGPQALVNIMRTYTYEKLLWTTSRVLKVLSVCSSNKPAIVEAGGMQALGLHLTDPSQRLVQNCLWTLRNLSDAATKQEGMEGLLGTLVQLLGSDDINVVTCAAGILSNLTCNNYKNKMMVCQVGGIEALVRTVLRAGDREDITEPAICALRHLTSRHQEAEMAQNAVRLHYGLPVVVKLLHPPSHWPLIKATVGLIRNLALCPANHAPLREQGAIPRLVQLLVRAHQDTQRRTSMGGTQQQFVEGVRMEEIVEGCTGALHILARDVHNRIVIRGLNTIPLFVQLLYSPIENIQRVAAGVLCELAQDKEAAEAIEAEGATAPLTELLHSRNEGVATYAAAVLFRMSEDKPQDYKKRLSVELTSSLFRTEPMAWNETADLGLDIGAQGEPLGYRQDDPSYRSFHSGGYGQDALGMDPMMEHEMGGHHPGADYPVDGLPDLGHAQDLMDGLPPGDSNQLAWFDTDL

B1: I-1553 (peptide)
peptide: Ac-[αAllylPro]DK[B5(23)]DEAAFL[S8]F[Bta]Q-NH2
modifications: staple 1-4, 4-11
notes: Stapled peptide composition; also called Ac-PL3-Asp-Lys-B5-Asp-Glu-Ala-Ala-Phe-Leu-S8-Phe-BztA-Gln-NH2
B2: I-1554 (peptide)
peptide: Ac-[αAllylPro]DK[B5(23)]DEAAF[hSer][S8]F[Bta]Q-NH2
modifications: staple 1-4, 4-11
notes: Stapled peptide composition; also called Ac-PL3-Asp-Lys-B5-Asp-Glu-Ala-Ala-Phe-Hse-S8-Phe-BztA-Gln-NH2
B3: I-260 (peptide)
peptide: Ac-[αAllylPro]DA[B5(4)]DDAAFV[S8][Phe(3-F)]WQ-NH2
modifications: staple 1-4, 4-11
notes: Stapled (stitched) peptide; also called Ac-PL3-Asp-Ala-B5-Asp-Asp-Ala-Ala-Phe-Val-S8-3FF-Trp-Gln-NH2
B4: I-285 (peptide)
peptide: XDAXDDAAFVXHWQ
modifications: not fully specified; N-terminal Ac; PL3 at 1; B5 at 4; S8 at 11; C-terminal NH2; staples PL3(1)-B5(4) and B5(4)-S8(11) by olefin metathesis
notes: Stapled (stitched) peptide; also called Ac-PL3-Asp-Ala-B5-Asp-Asp-Ala-Ala-Phe-Val-S8-His-Trp-Gln-NH2
B5: I-286 (peptide)
peptide: XDAXDDAAFAXFWA
modifications: not fully specified; N-terminal Ac; PL3 at 1; B5 at 4; S8 at 11; C-terminal NH2; staples PL3(1)-B5(4) and B5(4)-S8(11) by olefin metathesis
notes: Stapled (stitched) peptide; also called Ac-PL3-Asp-Ala-B5-Asp-Asp-Ala-Ala-Phe-Ala-S8-Phe-Trp-Ala-NH2
B6: I-261 (peptide)
peptide: Ac-[αAllylPro]DA[B5(4)]DDAAFV[S8][Phe(4-F)]WQ-NH2
modifications: staple 1-4, 4-11
notes: Stapled (stitched) peptide; also called Ac-PL3-Asp-Ala-B5-Asp-Asp-Ala-Ala-Phe-Val-S8-4FF-Trp-Gln-NH2
B7: I-262 (peptide)
peptide: XDAXDDAAFVXFWQ
modifications: not fully specified; N-terminal Ac; PL3 at 1; B5 at 4; S8 at 11; 34FF at 12; C-terminal NH2; staples PL3(1)-B5(4) and B5(4)-S8(11) by olefin metathesis
notes: Stapled (stitched) peptide; also called Ac-PL3-Asp-Ala-B5-Asp-Asp-Ala-Ala-Phe-Val-S8-34FF-Trp-Gln-NH2
B8: I-263 (peptide)
peptide: XDAXDDAAFVXFWQ
modifications: not fully specified; N-terminal Ac; PL3 at 1; B5 at 4; S8 at 11; 34FF at 12; C-terminal NH2; staples PL3(1)-B5(4) and B5(4)-S8(11) by olefin metathesis
notes: as for B7
B9: I-264 (peptide)
peptide: Ac-[αAllylPro]DA[B5(4)]DDAA[Phe(3-F)]V[S8]FWQ-NH2
modifications: staple 1-4, 4-11; not fully specified; printed as Ac-PL3-Asp-Ala-B5-Asp-Asp-Ala-Ala-3FF-Val-S8-Phe-Trp-Gln-NH2
notes: Stapled (stitched) peptide; also called Ac-PL3-Asp-Ala-B5-Asp-Asp-Ala-Ala-3FF-Val-S8-Phe-Trp-Gln-NH2
B10: I-265 (peptide)
peptide: Ac-[αAllylPro]DA[B5(4)]DDAA[Phe(3-F)]V[S8]FWQ-NH2
modifications: staple 1-4, 4-11; not fully specified; printed as Ac-PL3-Asp-Ala-B5-Asp-Asp-Ala-Ala-3FF-Val-S8-Phe-Trp-Gln-NH2
notes: as for B9
B11: I-266 (peptide)
peptide: Ac-[αAllylPro]DA[B5(4)]DDAA[Phe(4-F)]V[S8]FWQ-NH2
modifications: staple 1-4, 4-11
notes: Stapled (stitched) peptide; also called Ac-PL3-Asp-Ala-B5-Asp-Asp-Ala-Ala-4FF-Val-S8-Phe-Trp-Gln-NH2
B12: I-267 (peptide)
peptide: Ac-[αAllylPro]DA[B5(17)]DDAA[Phe(3,4-F2)]V[S8]FWQ-NH2
modifications: staple 1-4, 4-11
notes: Stapled (stitched) peptide; also called Ac-PL3-Asp-Ala-B5-Asp-Asp-Ala-Ala-34FF-Val-S8-Phe-Trp-Gln-NH2
B13: I-270 (peptide)
peptide: Ac-[αAllylPro]DA[B5(17)]D[2Pal]AAFV[S8]FWQ-NH2
modifications: staple 1-4, 4-11
notes: Stapled (stitched) peptide; also called Ac-PL3-Asp-Ala-B5-Asp-2PyrA-Ala-Ala-Phe-Val-S8-Phe-Trp-Gln-NH2
B14: I-271 (peptide)
peptide: Ac-[αAllylPro]DA[B5(17)]D[3Pal]AAFV[S8]FWQ-NH2
modifications: staple 1-4, 4-11
notes: Stapled (stitched) peptide; also called Ac-PL3-Asp-Ala-B5-Asp-3PyrA-Ala-Ala-Phe-Val-S8-Phe-Trp-Gln-NH2

Legend:
[1] = target: T1, B-cat-Halo (beta-catenin HaloTag …); test: cell-based or functional assay
[2] = target: T2, full-length beta-Catenin (Uniprot ID …); test: fluorescence polarization competition; displaces 5FAM-TCF4(10-53) from full-length beta-catenin
Description: (§1) The plate was incubated protected from light for 60 minutes at 20° C. prior to read. Reads were performed on a CLARIOstar plate reader (BMG Labtech) in duplicate, and data were fitted to a 1:1 binding model with hill slope using an in-house script. All provided concentrations are final concentrations.

[3] = target: T3, full-length beta-Catenin (Uniprot ID …); test: AlphaScreen competition; full-length beta-catenin with biotin-labelled TCF4 10-53 peptide as competitor
Description: as §1, with “Equal volume of the titrated peptide was added to the” for “The”, “and” for “was”, “incubated for 15 minutes at 20° C. Then 4 uL of donor and 4 uL acceptor beads at 10 ug/mL were added to the plate, for a 16 uL reaction pool and” for “incubated”

[4] = target: T3, full-length beta-Catenin (Uniprot ID …); test: fluorescence polarization competition; full-length beta-catenin with 5FAM-labelled TCF4 10-53 peptide as competitor
Description: as §1

NanoBRET Abs IC50 [1] [nM]	IC50 [2] [nM]	EC50 [3] [nM]	EC50 [4] [nM]	Binder
> 20000	133	–	–	B1
> 20000	63	–	–	B2
–	–	683	5000	B3
–	–	246	5000	B4
–	–	450	4480	B5
–	–	347	5000	B6
–	–	967	5000	B7
–	–	864	5000	B8
–	–	364	5000	B9
–	–	194	3760	B10
–	–	318	5000	B11
–	–	620	5000	B12
–	–	835	5000	B13
–	–	788	5000	B14
